In a protein production outcome set (Wang et al. 2014):

Experiment: label from the status in PepcDB records
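Also: failed if final PepcDB status was selected cloned or expressed and not failed if soluble or beyond.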

Row | Sequence | protein production
1 | MSPLILMITAGAGIALLLFLVLKYKFQPFVALMLVSILVALVAGVKPAELVATIEGGMGKTLGHIAIIIALGAMIGRIIELSGGAEALAKTLIERFGNRRTPLALTMAGFIIGVPVFFEVGVIILMPLAYGVARSARKPLLVFALPMCAALLTVHAFLPPHPGAVAAASQLGADLGRVLMFGLPLTALLCYVGYRVAGRMTRRNYPMTDDIRAEVYGPHVTNEDLAAWNNGSEQPASPQAVAAVAHMGLEESTGSLAAKLPPAPPPGFGLIVSLILLPIVLILLGTLATSLLPLESTLRGVLTVLGAPLVALLLDTLLCAWLLGSRRGWSRSQVSDVIGSALPGVAMVILIAGAGGVFGKVLVDTGIGAVVSDLLRTTGLPVLALGFLLTMLLRAVQGSTTVALVTTAGIIAPLIATLNLSPNHMALLCLAMGGGGLAMSHINDAGYWIFTKLAGLNVADGLRTWTVITTLLGTLGFCITLLIWPFV | failed
2 | MPKKPLIDQLHHEDSWRLFRILAEFVEGFETLSELQVPLVSVFGSARFGEGHPAYEAGYRLGRALAEAGFGVVTGGGPGVMEAVNRGAYEAGGVSVGLNIELPHEQKPNPYQTHALSLRYFFVRKVLFVRYAVGFVFLPGGFGTLDELSEVLVLLQTEKVHRFPVFLLDRGYWEGLVRWLAFLRDQKAVGPEDLQLFRLTDEPEEVVQALKAEAPPR | not failed
3 | MVKWYKTYLEVYGKSFDEISDDSIRKVKRQLKERQNDSPLVSVVLIAHNEERHLISCIWSLSENHCHFPIEIIAVNNNSTDKTEEILKSLGVTYYNETKKGPGYARQCGLDHAKGKYHICIDADTLYPPHYIETHVKYLMNPKVACTFSLWSFMVDERHSRFGLWCYEGLRDIYLRLQAIQRPELCVRGMAFSFNTEIGRRFGFRTDIIRGEDGSLALAMKPYGKIVFITSRKARVLTSNGTLNSEGSLIDNIWIRVIKALKEITGLFIKKTAYKDKDSNLIKLEHHHHHH | failed
4 | MKIMIFICGEGLGHTSRCLALGKELLNAGHEIKFGAYGYSKELVEKTGYTAQEIPSEIKLVGKAGSLDLTGSIEATLKSAQLLGGPKLLKLLREFKPDVVVSDSYYLGTLAAMVLKLPVYLIINQSNMEEFFKNRGLEHHHHHH | not failed
5 | MELLKLNRSVQGTGPGPGASLCRPGAPLLNSSSVGNLSCEPPRIRGAGTRELELAIRITLYAVIFLMSVGGNMLIIVVLGLSRRLRTVTNAFLLSLAVSDLLLAVACMPFTLLPNLMGTFIFGTVICKAVSYLMGVSVSVSTLSLVAIALERYSAICRPLQARVWQTRSHAARVIVATWLLSGLLMVPYPVYTVVQPVGPRVLQCVHRWPSARVRQTWSVLLLLLLFFIPGVVMAVAYGLISRELYLGLRFDGDSDSDSQSRVRNQGGLPGGAGPREQNLGEADVWRATGPAGVGGTEMKVRVRRKLEMELSWERRSGGDWAGDWGDSPFSLTAHPLCSGAVHQNGRCRPETGAVGEDSDGCYVQLPRSRPALELTALTAPGPGSGSRPTQAKLLAKKRVVRMLLVIVVLFFLCWLPVYSANTWRAFDGPGAHRALSGAPISFIHLLSYASACVNPLVYCFMHRRFRQACLETCARCCPRPPRARPRALPDEDPPTPSIASLSRLSYTTISTLGPG | failed
6 | MADERRCGVCRPLGGPRQPWPAGLLHCSSRAIFASLCMPRIVFAPAIQRHVAMPALDVGAATVAAALQAAFAREPRLRGYLLDDQGSLRRHVALFVDGVQVRDRRGLGDPLQDDSEIYVVQALSGGLEHHHHHH | failed
7 | MVLLSIDFASLHTILESLYNEMMPLCEDMLGVAKGVAGLGALFYVALRVWQSMARAEPVDVYPLLRPFALGICILLFPTLVLGTMNSILSPIVQGTHRMLEGQTLDMQQYRAQKDRLEREAMMRNPETAYLVSDEEFDRQLDELGWSPGDAATRLGMYMEVGMYNLEKSIRDAFRSLLELLFAAASLLIDTVRTFFLVVLSVLGPIAFSISVWDGLQSTLGQWFTRYISVYLWLPVSDLFSCMLAKIQVLMLQNDIAELQGNPDYSLDNSNCVYIIFMLIGIVGYFTVPTVSGWIVQAGGGGNYSRNLNRTATKAGGFTAGAGGAALGNIGGRIRGK | failed
8 | MSKVFVNISLSLDGFMAPEGMDMAHFSDPTYKNWGAKWGALMAWALSQQYLREKLKLGTGGETGPVNDMVRHTFERTGAHIMGKRMFEGGERGWPEEAPFHTPVYVLTHERRNPWVRPGGTTFYFVNDGPEQALALAREAAGERDIRISGGANVIQQYLNLGLVDELEIALIPVIFGGGRRLFENLHEPLPQFRIDRVLASPTATHLRYVRL | not failed
9 | MVRSCAPHKRKAGRRARLAFGALASHGARENTEVPMRYVLILLLALFGYLLFWPIPVAPVAYHPPETPGFTGDFAENRVLDRAEFVTLPDGEIGPEDLAVMPDGTVYTTSLAGNLYRIDGAVPQLVDRLGGRPLGLKAGPDGALYIADSFRGILRWTAPGEVETVVDQIDGAPVIYANQLDLGRDGTIYFSNSTDRFDPRTLGGTKPTSVMTVWEQSDTGYVARRTPDGRVEKIATGFVYTNGVALSPDEDFLLINETGRARVHRLWLTGDKAGQSEVFLDNLPGYPDNIEAQGDGTYWLAFASPRVPAEALMPYPFLRKVVWRLGPKVRPAPIHRGMLIQFDGTGRILRTVQDPDGRLGITTGGKQVGARFYVMTLDSPGFARMDSADLR | failed
10 | MEDLTASVTNRTVSLPLSCVTTDFGLGVIYASKNQESKTTREKPMLVTLNSSLEHTYQKDFKSLREILSRKVAWQTEAVNAISQIICGCKTDSTRRNQASGIWLALLGPDKVGKKKVAMTLSEVFFGGKVNYICVDFGAEHCSLDDKFRGKTVVDYVTGELSRKPHSVVLLENVEKAEFPDQMRLSEAVSTGKIRDLHGRVISMKNVIVVVTSGIAKDNATDHVIKPVKFPEEQVLSARSWKLQIKLGDATKFGVNKRKYELETAQRAVKVQRSYLDLNLPVNETEFSPDHEAEDRDAWFDEFIEKVDGKVTFKPVDFDELAKNIQEKIGSHFERCFGSETHLELDKEVILQILAASWSSLSSGEEEGRTIVDQWMQTVLARSFAEAKQKYGSNPMLGVKLVASSSGLASGVELPAKVDVIW | failed
11 | MMITRGGAKAAKSLLVAAGPRLFSTVRTVSSHEALSASHILKPGVTSAWIWTRAPTIGGMRFASTITLGEKTPMKEEDANQKKTENESTGGDAAGGNNKGDKGIASYWGVEPNKITKEDGSEWKWNCFRPWETYKADITIDLKKHHVPTTFLDRIAYWTVKSLRWPTDLFFQRRYGCRAMMLETVAAVPGMVGGMLLHCKSLRRFEQSGGWIKALLEEAENERMHLMTFMEVAKPKWYERALVITVQGVFFNAYFLGYLISPKFAHRMVGYLEEEAIHSYTEFLKELDKGNIENVPAPAIAIDYWRLPADATLRDVVMVVRADEAHHRDVNHFASDIHYQGRELKEAPAPIGYH | failed
12 | MTGTSNIPTHGKEHKDAPALLPLPAPNPHHTHAAHPGNPSHDRPPSRGKLFIKTHGCQMNEYDSAKMADVLTTTEALELTDNPEEADIILINTCSIREKAQEKVFSQLGRWRALKTSGRDVIIGVGGCVASQEGEAIVKRAPYVDLVFGPQTLHRLPDMIRARREQNRPQVDIRFPEIEKFDHLPTPRAEGPSAFVSIMEGCSKYCSFCVVPYTRGEEVSRPFEDVLTEIAHLATQGVREINLLGQNVNAYRGAMDPGPSNNTNPAPPPYADLGLLIRAIAQFESIGRIRFTTSHPLEFSDSLVEAYRDVPQLANHLHLPVQSGSDRILSAMKRGYTALEFKSKIRKLRAVRPDISISSDFIIGFPGESDTDFQKTMQLIEDIGFDQSFSFIYSRRPGTPASNLEDHTPDEIKRTRLEHLQKHINTYAADISKRMIGTVQTVLVEGPSKKNPNELTGKTENMRPVNFPGHPRLIGQFIDVHITEALSNSLRGRVHTNLEHHHHHH | not failed
13 | MQNAESWFKKYWHLSVLVIAALISVKLRILNPWNSVFTWTVRLGGNDPWYYYRLIENTIHNFPHRIWFDPFTYYPYGSYTHFGPFLVYLGSIAGIIFSATSGESLRAVLAFIPAIGGVLAILPVYLLTREVFDKRAAVIAAFLIAIVPGQFLQRSILGFNDHHIWEAFWQVSALGTFLLAYNRWKGHDLSHNLTARQMAYPVIAGITIGLYVLSWGAGFIIAPIILAFMFFAFVLAGFVNADRKNLSLVAVVTFAVSALIYLPFAFNYPGFSTIFYSPFQLLVLLGSAVIAAAFYQIEKWNDVGFFERVGLGRKGMPLAVIVLTALIMGLFFVISPDFARNLLSVVRVVQPKGGALTIAEVYPFFFTHNGEFTLTNAVLHFGALFFFGMAGILYSAYRFLKRRSFPEMALLIWAIAMFIALWGQNRFAYYFAAVSAVYSALALSVVFDKLHLYRALENAIGARNKLSYFRVAFALLIALAAIYPTYILADAQSSYAGGPNKQWYDALTWMRENTPDGEKYDEYYLQLYPTPQSNKEPFSYPFETYGVISWWDYGHWIEAVAHRMPIANPFQAGIGNKYNNVPGASSFFTAENESYAEFVAEKLNVKYVVSDIEMETGKYYAMAVWAEGDLPLAEKYYGGYFYYSPTGTFGYANSQWDIPLNSIIIPLRIPSELYYSTMEAKLHLFDGSGLSHYRMIYESDYPAEWKSYSSQVNLNNESQVLQTALYEAVMRARYGVSPTMGTQEVLYKYAYTQLYEKKMGIPVKIAPSGYVKIFERVKGAVVTGKVSANVTEVSVNATIKTNQNRTFEYWQTVEVKNGTYTVVLPYSHNSDYPVKPITPYHIKAGNVVKEITIYESQVQNGEIIQLDL | failed
14 | MNRRKISALLLSCTLAMNISSFNEIVLADENKGEEVQKESHNESNCIAGDYHEVNNGNAKNTENTPVINGIKVNKQLIDINYSQGVTINPKYIVIHDTDNRQAGANAMANRNYFANHPNAKASAHYIIDEGNIIQALEDTWKGWHVGDGNNPNINNSTTIAIELCVNKENDFDKTLENGIELTKYLVNKYNIPAENVVMHRDASGKTCSRMMIEDRPSLWPYFKERISGGDGSLEDDGLKPKMQGKVTNASVLNVRESPSTSGRIVHKLNRNQVVGIYEELNGWYKIDYIDGVKKKYGYVSKDYISIINENPEDEETNGDIEIEKPSVSVNKQGIVKVNSALNMRSGPGSNYGVIGTLRNNDEVEIIKEVDGWYEIKFNGKSGYVSSQYIKVLDNESNEEKPVEPEKPSVSLNKQGVVKVNSALNMRSGPGSNYGVIGTLRNNDEVEIIKEVDGWYEIKFNGKSGYVSSQYIKVLDNESNEEKPVEPEKPSVSLNKQGVVKVNSALNMRSGPGSNYGVIGTLRNNDKVEIIKEVDGWYEIRFNGKVGYASKSYITIVNEGSNNGTDSVIKEGTVYGVSTNLNVRTGPGTSYQVIGYLLSGDKVKILGDENGWYKVQFNASTGTKNGYVSKDYIKV | failed
15 | MDMLHAMRTFTRVVECGSFAAAANALDISAAQVSRIVAELENQLQTRLLHRTTRRLRMSEAGERFLERARQIMLLTEEAVGEARGAHLTPRGHLRLHCPHGMGLLLMPLVAGYNMLYPEVVIELTLSQRNPDPLAEGHDVVITVDGALPDSQLIAVPLGNIFSIPCAAPGYLDTHGVPERPEDLHGHRCLRMAYPMYEGDWVFPQGVDQCVIAPNDSFSTNVADAMLVASELGMGIGLLPFYTASEAIGQGRLCRLLAPYRLRESALYAMYPSRHYLDAKVRTWIDYLKEQLPALFEGHARVVDDARYWR | failed
16 | MRRGRGKGKKQNASAREDRGSGDEEKIPAYRRRGRPQKPMKDDFEEEEEEDDEEMVEKMEVEDEDEEIDDGSVTSKDLKERKRKMSNGSNTDLTEEENGLGSKPNTDDSTRSTSIGFRQNGSRRKSKPRRAAEAVVECNGV | failed
17 | MSKAVLTTKVTPGYKDLPEVRYHFPRTYLNQVRQAVGDYILYYEPRRTTVELSSFGGRQSYFGVARVVDLVEDKDQADHYYALVDDYLDFDRPVPFVEGGHYYESALRKSDGSTNKGAFGRAVRLIPDAEFDQIWKAGFAPILGEETSRHQPRQFEISEPTVPFERPIIEMTISRPFRERSFMYNVRAAYENRCAMTGLRLINGGGRPEVQAAHIQPVAEKGPDSVRNGLALSGTVHWMFDRGLISIGDDYKILTAENHVPDDALRLLNHSRTINLPNDTAFYPNALFLKFHRDKIFKG | failed
